# Experimental data published in publication PMC5238629, “Streptavidin-coated gold nanoparticles: critical role of oligonucleotides on stability and fractal aggregation”.
# Target: streptavidin (Streptomyces avidinii, UniProt P22629 25-183)
# Test: SPR; binding through the 3'-biotin, not the DNA sequence; 10 uM BiotinDNA in water gave about 90 RU; about 70 RU lost on displacement by free biotin (0.01-10.24 mM); SPR: 10 uM BiotinDNA in water, 10 uL/min, immobilized streptavidin; displacement by free biotin in water; temperature and pH not given
# Settings: protein: commercial; chain copies: 4; single strand
# streptavidin, sequence (P22629 25-183): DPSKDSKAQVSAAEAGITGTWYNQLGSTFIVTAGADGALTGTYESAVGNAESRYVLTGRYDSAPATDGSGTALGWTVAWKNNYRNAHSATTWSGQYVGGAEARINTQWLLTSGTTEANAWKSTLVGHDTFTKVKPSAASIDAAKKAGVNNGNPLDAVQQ
binder,measurement,value
"AGCAGCCTAAG (ssDNA, 3'-biotin) [BiotinDNA]",binding result,binds
